Source: patent US8709811B2, “Materials and methods for synthesis of a flavor and aroma volatile in plants” (University of Florida Research Foundation, Inc., priority 2003, dated 2014)

Key:
Assay in all cases: Alcohol dehydrogenase activity of E. coli expressed His-tagged LePEDH on phenylacetaldehyde and related substrates (Km)
Format in all cases: biochemical, tomato
Settings in all cases: other: substrate specificity of LePEDH, His tag, E. coli BL21-AI
[1] = system: O=C/C=C/c1ccccc1
Method: (§1) The 2-phenylethanol dehydrogenase coding region of the full-length cLET2M9 was cloned in vector pDEST17 with a His tag and transformed into E. coli BL21-AI cells for inducible expression. Alcohol dehydrogenase activities on phenylacetaldehyde and several related substrates were determined.

[2] = system: O=CCc1ccccc1
Method: as §1

[3] = system: O=Cc1ccccc1
Method: as §1

Chain of LePEDH (tomato 2-phenylethanol dehydrogenase, full-length cLET2M9) (Solanum lycopersicum) (chain, as listed by the source): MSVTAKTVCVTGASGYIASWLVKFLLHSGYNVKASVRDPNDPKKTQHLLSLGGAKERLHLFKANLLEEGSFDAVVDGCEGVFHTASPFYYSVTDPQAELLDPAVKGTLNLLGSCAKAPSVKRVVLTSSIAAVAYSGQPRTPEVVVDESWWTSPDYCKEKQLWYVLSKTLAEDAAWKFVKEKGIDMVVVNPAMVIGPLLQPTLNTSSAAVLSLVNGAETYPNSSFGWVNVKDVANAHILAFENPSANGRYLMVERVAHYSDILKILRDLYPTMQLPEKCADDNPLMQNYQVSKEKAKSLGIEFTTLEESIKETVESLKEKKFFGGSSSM

Substance: LePEDH (tomato 2-phenylethanol dehydrogenase, full-length cLET2M9) (Solanum lycopersicum)
- Km [1]: 428.9 µM
- Km [2]: 42.3 µM
- Km [3]: 240.1 µM
